# Experimental data as given in patent US20040091453, “Pancreatic langerhans beta cell proliferation promoter and apoptosis inhibitor, and screening of candidate compounds for the e drugs” (published 2004).
# B1: Probe 1 (rat Reg -86 to -65) (dsDNA)
# DNA 1: TTCCTTGCCCCTCCCATTTTTC
# DNA 2: GAAAAATGGGAGGGGCAAGGAA
# Molecular target: PARP (poly(ADP-ribose) polymerase), purified (Homo sapiens, UniProt P09874 P09874:2-1014)
# Experiment: EMSA; 10 ng PARP; retarded band at position different from nuclear extract complex; room temperature, 2 mM MgCl2, 50 mM NaCl
# Conditions: tags: Trevigen Inc; label: 32P
# Description: Biophys. Acta, 1219, 241-243) and stored at −80° C. until use. GMSA was performed by the method of Garabedian (Garabedian, M. J. et al. Analysis of protein—DNA interactions in Gene Transcription: A practical approach (Hamesm, B. D., and Higgins, S. J. eds.), pp. 243-293, IRL Press, Oxford (1993)). The nuclear extract (10 μg) was incubated in a final volume of 20 μl of buffer containing 20 mM Tris-HCl (pH 7.9), 2 mM MgCl₂, 50 mM NaCl, 2 mM EDTA, 10% glycerol, 0.1% Nonidet P-40, 1 mM DTT, 50 μg/ml bovine serum albumin and 1 μg of poly(dI-dC). After incubation for 10 min at room temperature, 2.5 pmol of double-stranded DNA, previously labeled by an exchange reaction using MEGALABEL™ (Takara Shuzo) and [γ-³²P]ATP (Amersham Pharmacia Biotech), were added and incubated for 30 min at room temperature, then the binding reactions were resolved on pre-run 6% acrylamide gel. When competition experiments were conducted in the presence of 100-fold molar excess of cold probe, an unlabeled competitor was added with the labeled probe. In the supershift assay, 2 μg of anti-Sp1, -Sp2, -Sp3 or -Sp4 antibody (Santa Cruz) were added prior to the addition of the ³²P-probe. […] DNA was detected by immunoblot using an ECL 3′-oligolabelling and detection system (Amersham Pharmacia Biotech). […]
# Chain of PARP (poly(ADP-ribose) polymerase), purified (P09874 2-1014, one chain of several): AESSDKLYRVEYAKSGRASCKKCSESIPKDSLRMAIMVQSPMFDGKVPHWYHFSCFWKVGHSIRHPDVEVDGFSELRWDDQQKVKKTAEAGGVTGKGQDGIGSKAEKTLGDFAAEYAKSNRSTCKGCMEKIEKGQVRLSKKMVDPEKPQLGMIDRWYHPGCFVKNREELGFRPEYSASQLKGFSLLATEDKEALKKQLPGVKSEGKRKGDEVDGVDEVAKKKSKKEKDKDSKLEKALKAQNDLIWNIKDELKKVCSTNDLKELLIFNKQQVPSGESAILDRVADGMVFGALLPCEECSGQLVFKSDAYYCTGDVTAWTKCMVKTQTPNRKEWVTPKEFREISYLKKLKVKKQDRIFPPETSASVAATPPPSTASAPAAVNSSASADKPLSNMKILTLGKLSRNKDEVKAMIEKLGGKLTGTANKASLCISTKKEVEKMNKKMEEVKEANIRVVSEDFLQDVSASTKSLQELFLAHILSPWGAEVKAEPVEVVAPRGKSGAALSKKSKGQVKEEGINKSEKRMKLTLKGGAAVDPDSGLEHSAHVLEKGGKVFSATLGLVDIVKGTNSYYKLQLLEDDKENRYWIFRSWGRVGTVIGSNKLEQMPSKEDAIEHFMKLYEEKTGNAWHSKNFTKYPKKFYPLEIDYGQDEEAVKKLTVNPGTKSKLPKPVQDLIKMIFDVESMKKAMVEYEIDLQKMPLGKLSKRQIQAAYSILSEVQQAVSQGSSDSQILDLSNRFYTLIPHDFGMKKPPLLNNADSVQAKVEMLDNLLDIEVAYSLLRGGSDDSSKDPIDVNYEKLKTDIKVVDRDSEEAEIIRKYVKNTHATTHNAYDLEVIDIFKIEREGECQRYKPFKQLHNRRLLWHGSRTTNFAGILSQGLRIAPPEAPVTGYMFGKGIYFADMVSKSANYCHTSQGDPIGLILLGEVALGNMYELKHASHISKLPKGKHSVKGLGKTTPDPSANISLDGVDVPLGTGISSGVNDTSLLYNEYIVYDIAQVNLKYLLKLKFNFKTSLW
binder,measurement,value
B1,binding result,binds
